Experimental data published in PMC12807514.
Like-named read-outs stand apart in the source and are kept apart here.

Experiments:
CCR7 (Homo sapiens) [1] = biological target: CCR7 (Homo sapiens) (UniProt P32248); settings: cited from earlier work
CCR7 (Homo sapiens) [2] = biological target: CCR7 (Homo sapiens) (UniProt P32248); settings: cited from earlier work; remark: listed apart in the source
[3] = biological target: C-C Chemokine Receptor 7 (CCR7), endogenous in CEM cells (human (endogenous in CEM)) (UniProt P32248)

CCL19, sequence (Q99731 22-98): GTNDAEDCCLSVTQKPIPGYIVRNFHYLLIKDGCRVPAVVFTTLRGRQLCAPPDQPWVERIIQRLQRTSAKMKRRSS

Substance: CCL19 (from UniProt Q99731)
- Kd (CCR7 (Homo sapiens) [1]): 0.1 nM

Substance: CCL21 (from UniProt O00585)
- Kd (CCR7 (Homo sapiens) [2]): 0.1 nM

Substance: human C-C Chemokine Ligand 19 (hCCL19) (from UniProt Q99731 22-98)
- CCR7 internalization (CCR7 left on the surface, flow cytometry) in CEM T cells with 200 nM CCL19, measured at 2 min intervals over 10 min [3]: 80%
